Data published in patent US20240383974A1 (BETTA PHARMACEUTICALS, published 2024).
Read-outs that look alike come from different tables or passages of the source.

Columns and labels:
[1] = target: T1, GARP-TGF-β complex (293-GARP/TGFβ stably transfected cells) (UniProt Q14392 20-662; P01137 30-390); experiment: FACS on 293-GARP/TGFβ cells
T1 construct: whole, on cells; Complex of GARP and (latent) TGF-β on the cell surface; also called 293-GARP/TGFβ cell; 293F-GAPR/TGFβ/αvβ6 cells

[2] = target: T2, human PD-L1 (human, UniProt Q9NZQ7 19-290); experiment: FACS on MC38-hPD-L1 cells
T2 construct: whole, on cells; also called hPD-L1; PD-L1 antigen on MDA-MB-231 cells

[3] = target: T1, GARP-TGF-β complex (293-GARP/TGFβ …); experiment: cell-based or functional assay
[4] = target: T2, human PD-L1; experiment: cell-based or functional assay
[5] = target: T1, GARP-TGF-β complex (293-GARP/TGFβ …); experiment: FACS on 293-GARP/TGFβ cells; remark: listed apart in the source
[6] = target: T3, GARP (CHO-K1-GARP cell line that overexpresses GARP) (UniProt Q14392 20-662, limits assumed); experiment: FACS on CHO-K1-GARP cells
T3 construct: whole, on cells; also called GARP protein
T3 sequence (looked up): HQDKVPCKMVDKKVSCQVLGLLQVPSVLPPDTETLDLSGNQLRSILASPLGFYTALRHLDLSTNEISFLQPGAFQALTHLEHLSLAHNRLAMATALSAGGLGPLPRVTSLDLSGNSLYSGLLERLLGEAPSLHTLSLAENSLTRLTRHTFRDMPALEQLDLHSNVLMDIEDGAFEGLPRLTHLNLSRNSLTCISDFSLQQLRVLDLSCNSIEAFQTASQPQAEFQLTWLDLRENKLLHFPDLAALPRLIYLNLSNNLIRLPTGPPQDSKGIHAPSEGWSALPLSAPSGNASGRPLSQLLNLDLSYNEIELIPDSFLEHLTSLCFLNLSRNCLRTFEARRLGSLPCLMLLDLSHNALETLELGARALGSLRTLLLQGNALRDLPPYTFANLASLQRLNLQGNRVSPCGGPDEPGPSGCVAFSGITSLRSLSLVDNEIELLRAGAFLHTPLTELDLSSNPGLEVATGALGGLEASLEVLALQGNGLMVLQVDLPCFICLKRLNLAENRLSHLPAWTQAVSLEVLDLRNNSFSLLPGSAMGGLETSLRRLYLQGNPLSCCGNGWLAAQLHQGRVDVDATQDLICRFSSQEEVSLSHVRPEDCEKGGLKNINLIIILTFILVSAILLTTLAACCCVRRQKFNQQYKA

[7] = target: T4, human transforming growth factor β1 (human, UniProt P01137 279-390); experiment: ELISA, plate-coated hTGF-β1
T4 construct: Coated on the ELISA plate at 100 ng/well; also called hTGF-β1; TGF-β

[8] = target: T3, GARP (CHO-K1-GARP cell line that …); experiment: FACS on CHO-K1-GARP cells; remark: listed apart in the source
[9] = target: T1, GARP-TGF-β complex (293-GARP/TGFβ …); experiment: FACS on 293-GARP/TGFβ cells; remark: listed apart in the source

T2 sequence (Q9NZQ7 19-290): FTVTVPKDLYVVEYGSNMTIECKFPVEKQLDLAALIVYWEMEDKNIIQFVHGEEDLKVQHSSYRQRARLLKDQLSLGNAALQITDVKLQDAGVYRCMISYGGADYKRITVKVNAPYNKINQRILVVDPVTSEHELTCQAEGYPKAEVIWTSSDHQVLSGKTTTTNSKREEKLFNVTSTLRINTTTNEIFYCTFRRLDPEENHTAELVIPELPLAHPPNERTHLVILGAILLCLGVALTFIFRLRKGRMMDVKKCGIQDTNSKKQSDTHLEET
T4 sequence (P01137 279-390 limits assumed): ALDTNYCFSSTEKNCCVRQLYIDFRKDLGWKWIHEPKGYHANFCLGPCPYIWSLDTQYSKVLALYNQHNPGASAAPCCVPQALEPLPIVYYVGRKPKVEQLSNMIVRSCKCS

B1: b202-hu-H-D2hu (bispecific antibody, human IgG1, kappa)
heavy: not shown
light: DIVLTQSPDSLAVSLGERATINCRASESVTIIGTNLIQWFQQKPGQPPKLLIYHASNLETGVPDRFSGSGSRTDFTLTISSLQAEDVAVYYCLQSRQIPRTFGGGTKVEIKRTVAAPSVFIFPPSDEQLKSGTASVVCLLNNFYPREAKVQWKVDNALQSGNSQESVTEQDSKDSTYSLSSTLTLSKADYEKHKVYACEVTHQGLSSPVTKSFNRGEC
notes: also called b202-H-D2hu
[1]
  EC50: 5.6 nM
[2]
  EC50: 0.34 nM
[3]
  IC50(nM), TGFβ reporter gene blocking (293F-GAPR/TGFβ/αvβ6 cells with 293-SBE-Luciferase cells): 4.9 nM
[4]
  IC50(nM), PD-1/PD-L1 NFAT-luciferase reporter (293T-hPD-L1 with Jurkat-PD1-CD3zeta-NFAT-Luc2 cells): 7.8 nM

B2: b202-L-D2hu (bispecific antibody, human IgG1, kappa)
heavy: not shown
light: DIVLTQSPDSLAVSLGERATINCRASESVTIIGTNLIQWFQQKPGQPPKLLIYHASNLETGVPDRFSGSGSRTDFTLTISSLQAEDVAVYYCLQSRQIPRTFGGGTKVEIKRTVAAPSVFIFPPSDEQLKSGTASVVCLLNNFYPREAKVQWKVDNALQSGNSQESVTEQDSKDSTYSLSSTLTLSKADYEKHKVYACEVTHQGLSSPVTKSFNRGECGGGGSGGGGSGGGGSGGGGSEVQLVESGGGLVQPGGSLRLSCAASGRDFLTYGMGWFRQAPGKGLEFVASINWSGSMTYYADSVKGRFTISRDNAKNSVYLQMNSLRAEDTAVYICAARRGAVTYASSNEYEHWGQGTQVTVSS
notes: also called b202-hu-L-D2hu
[1]
  EC50: 5.4 nM
[2]
  EC50: 0.39 nM
[3]
  IC50(nM), TGFβ reporter gene blocking (293F-GAPR/TGFβ/αvβ6 cells with 293-SBE-Luciferase cells): 1.7 nM
[4]
  IC50(nM), PD-1/PD-L1 NFAT-luciferase reporter (293T-hPD-L1 with Jurkat-PD1-CD3zeta-NFAT-Luc2 cells): 13 nM

B3: antibody m212 (antibody, V domains shown)
VH: QVQLQQPGPELVKPGASVKLTCKASGYIFTSYWMHWVKRGPGRGLEWIGRIAPNSGGAHYHEKFKTKVTLTVDKPSSTAYMEFSSLTSEDSAVYYCARGNYGMDYWGQGTAVTVSS
VL: DIQMTQTTSSLSASLGDRVTISCRASQDISNYLNWYQQKPDGTVELLIYYTSTLHSGVPSRFSGSGSGTDYSLTISNLEQEDIATYFCQQVNTLPFTFGSGTKLEII
notes: Hybridoma-derived, expressed in mammalian cells; hIgG1 and hIgG4 as controls
[5]
  EC50: < 2 nM
[6]
  EC50: 0.46 nM

B4: antibody m305 (antibody, V domains shown)
VH: EVQLQQSGPELVKPGASVKIPCKTSGYTFTDYNMNWVKQSHGKSLEWIGDINPYSGGTIYNQKFKGKAILTVDKSSSTAYMELRSLTSEDTGIYYCARVSKGSGDYWGQGTTLTVSS
VL: DIQMTQSPSSLSASLGERVSLTCRASQEISGYLSWLQQKPDGTIKRLIYAASTLDSGVPKRFSGSRSGSDYSLTISSLESEDFADYYCLQYASYPTCTFGGGTKLEIK
[5]
  EC50: 4.1 nM
[6]
  EC50: < 1 nM

B5: antibody m107 (antibody, V domains shown)
VH: QVHLQQSGAALARPGASVKMSCKASGYTFSAYTIHWVKQRPGQGLEWIGYINPSNDFAKYIQKFKDKATLTADKSSSTAYMQLNSLTSEDSAIYYCARVDYYGGSYRWYLDVWGAGTTVTVSS
VL: DIVLTQSPATLSVTPGDSVSLSCRASQSISNNLHWYQQKSHESPRLLIKYTSQSISGIPSRFSGSGSGTDFTLSINSVETEDFGMYFCQQSNSWPIFTFGSGTKLEIK
[7]
  EC50: 0.021 nM
[5]
  EC50: 3.2 nM
[6]
  EC50: > 2 nM

B6: antibody m212-hu (antibody, V domains shown)
VH: QVQLVQSGAEVKKPGSSVKVSCKASGYIFTSYWMHWVKQAPGQGLEWIGRIAPNSGGAHYHEKFKTKVTITADKSTSTAYMEFSSLRSEDTAVYYCARGNYGMDYWGQGTAVTVSS
VL: DIQMTQSPSSLSASVGDRVTITCRASQDISNYLNWYQQKPGGAPELLIYYTSTLHSGVPSRFSGSGSGTDYTLTISSLQPEDFATYFCQQVNTLPFTFGSGTKLEIK
notes: Humanized m212
[2]
  binding result: no binding (tested: initial concentration 200 nM)
[8]
  EC50: 1.4 nM
[9]
  EC50: < 2 nM

B7: antibody m305-hu (antibody, V domains shown)
VH: QVQLVQSGAEVKKPGASVKVSCKTSGYTFTDYNMNWVKQAPGQGLEWIGDINPYSGGTIYNQKFKGRATLTTDTSTSTAYMELRSLRSDDTAVYYCARVSKGSGDYWGQGTLVTVSS
VL: DIQMTQSPSSLSASVGDRVTITCRASQEISGYLSWLQQKPGGAPKRLIYAASTLDSGVPSRFSGSRSGTDYTLTISSLQPEDFATYYCLQYASYPTCTFGGGTKVEIK
notes: Humanized m305
[8]
  EC50: 0.45 nM
[9]
  EC50: 2.1 nM
